Starred links: 1 amine or outer side, 2 acyl side, 3 side chain; linkers in the order of their positions; H or OH if unused. Non-standard residues stand in square brackets, D forms with d. Groups on a side chain read outwards from the residue. Primed or numbered codes have the meaning given here. No end group written: not given here. *: point of attachment. γGlu = O=C(O)[C@H](CCC(=O)[*:2])N[*:1]; αMeF = C[C@](N)(Cc1ccccc1)C(=O)O; αMeK = C[C@](N)(CCCCN)C(=O)O; Lauroyl = CCCCCCCCCCCC(=O)*; αMeS = C[C@](N)(CO)C(=O)O; PEG2′ = not defined here; Aib = CC(C)(N)C(=O)O
T1: glucose-dependent insulinotropic peptide (gastric inhibitory polypeptide) receptor (GIPR), primary cAMP assay … (human, UniProt P48546 22-466)
T1 sequence (looked up): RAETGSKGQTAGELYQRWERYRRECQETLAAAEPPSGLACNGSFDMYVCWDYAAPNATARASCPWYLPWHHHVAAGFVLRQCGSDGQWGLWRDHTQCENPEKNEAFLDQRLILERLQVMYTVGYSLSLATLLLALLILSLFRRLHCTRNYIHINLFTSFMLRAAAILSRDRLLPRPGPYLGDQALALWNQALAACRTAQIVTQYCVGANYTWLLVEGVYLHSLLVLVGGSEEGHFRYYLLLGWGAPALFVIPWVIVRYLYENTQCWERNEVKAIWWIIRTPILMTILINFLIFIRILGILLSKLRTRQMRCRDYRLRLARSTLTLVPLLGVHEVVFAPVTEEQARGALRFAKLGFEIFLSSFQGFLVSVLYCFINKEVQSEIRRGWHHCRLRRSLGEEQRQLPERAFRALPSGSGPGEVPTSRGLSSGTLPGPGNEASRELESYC

T2: GLP-1R in the INS1e assay (UniProt P32301 22-463, limits assumed)
T2 sequence (looked up): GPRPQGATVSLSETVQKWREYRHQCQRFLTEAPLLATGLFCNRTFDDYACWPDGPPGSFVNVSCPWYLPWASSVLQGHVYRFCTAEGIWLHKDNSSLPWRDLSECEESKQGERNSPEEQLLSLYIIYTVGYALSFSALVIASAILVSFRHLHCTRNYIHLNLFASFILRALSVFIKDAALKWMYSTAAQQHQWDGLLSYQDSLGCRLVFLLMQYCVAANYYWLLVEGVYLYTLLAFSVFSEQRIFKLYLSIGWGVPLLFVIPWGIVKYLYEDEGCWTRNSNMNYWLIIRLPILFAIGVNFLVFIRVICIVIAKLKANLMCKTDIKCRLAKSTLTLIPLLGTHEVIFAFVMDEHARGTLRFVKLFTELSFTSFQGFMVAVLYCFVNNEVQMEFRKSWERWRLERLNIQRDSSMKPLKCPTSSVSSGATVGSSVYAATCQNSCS

B1: SEQ ID NO: 462 (peptide)
peptide: H[Aib]EGS[αMeF]TSDVSK([PEG2′-PEG2′-γGlu-Lauroyl])YLEGEAA[αMeK]K([PEG2′-PEG2′-γGlu-Lauroyl])FIAK([PEG2′-PEG2′-γGlu-Lauroyl])VVEGG-NH2
B2: SEQ ID NO: 455 (peptide)
peptide: H[Aib]EGS[αMeF]TSDK([PEG2′-PEG2′-γGlu-Lauroyl])SSYLEK([PEG2′-PEG2′-γGlu-Lauroyl])EAA[αMeK]EFIAK([PEG2′-PEG2′-γGlu-Lauroyl])VVEGG-NH2
B3: SEQ ID NO: 467 (peptide)
peptide: H[Aib]EGS[αMeF]TSDV[αMeS]SYK([PEG2′-PEG2′-γGlu-Lauroyl])EK([PEG2′-PEG2′-γGlu-Lauroyl])EAA[αMeK]EFIAK([PEG2′-PEG2′-γGlu-Lauroyl])VVEGG-NH2
B4: SEQ ID NO: 470 (peptide)
peptide: H[Aib]EGS[αMeF]TSDV[αMeS]SYK([PEG2′-PEG2′-γGlu-Lauroyl])EGEAA[αMeK]K([PEG2′-PEG2′-γGlu-Lauroyl])FIAK([PEG2′-PEG2′-γGlu-Lauroyl])VVEGG-NH2
B5: SEQ ID NO: 458 (peptide)
peptide: H[Aib]EGS[αMeF]TSDK([PEG2′-PEG2′-γGlu-Lauroyl])SSYLEGEAA[αMeK]K([PEG2′-PEG2′-γGlu-Lauroyl])FIAK([PEG2′-PEG2′-γGlu-Lauroyl])VVEGG-NH2
B6: SEQ ID NO: 450 (peptide)
peptide: H[Aib]EGS[αMeF]TSDV[αMeS]SK([PEG2′-PEG2′-γGlu-Lauroyl])LEGEAA[αMeK]K([PEG2′-PEG2′-γGlu-Lauroyl])FIK([PEG2′-PEG2′-γGlu-Lauroyl])FVVEGG-NH2

target: GLP-1 receptor (GLP-1R), primary cAMP assay cell line (human, UniProt P43220 24-463); assay: cell-based or functional assay

Row | cAMP Primary assay EC50, Mean pM GLP-1R | cAMP Primary assay EC50, n1 | cAMP Primary assay EC50, n2 | Binder
1 | 47 pM | 37.6 pM | 56.4 pM | B1
2 | 87.4 pM | 54.8 pM | 120 pM | B2
3 | 55.4 pM | 49.3 pM | 61.5 pM | B3
4 | 31.3 pM | 26 pM | 36.5 pM | B4
5 | 41.4 pM | 36.3 pM | 46.4 pM | B5
6 | 49 pM | 28 pM | 70 pM | B6

target: T1, glucose-dependent insulinotropic …; assay: cell-based or functional assay

Row | cAMP Primary assay EC50, n1 | cAMP Primary assay EC50, n2 | Binder
7 | 20 nM | 20 nM | B1
8 | 19.8 nM | 19.8 nM | B2
9 | 19.8 nM | 19.8 nM | B3
10 | 20 nM | 20 nM | B4
11 | 20 nM | 20 nM | B5
12 | 19.9 nM | 19.9 nM | B6

target: glucagon receptor (GCGR), primary cAMP assay cell line (human, UniProt P47871 26-477); assay: cell-based or functional assay
Sequence (P47871 26-477): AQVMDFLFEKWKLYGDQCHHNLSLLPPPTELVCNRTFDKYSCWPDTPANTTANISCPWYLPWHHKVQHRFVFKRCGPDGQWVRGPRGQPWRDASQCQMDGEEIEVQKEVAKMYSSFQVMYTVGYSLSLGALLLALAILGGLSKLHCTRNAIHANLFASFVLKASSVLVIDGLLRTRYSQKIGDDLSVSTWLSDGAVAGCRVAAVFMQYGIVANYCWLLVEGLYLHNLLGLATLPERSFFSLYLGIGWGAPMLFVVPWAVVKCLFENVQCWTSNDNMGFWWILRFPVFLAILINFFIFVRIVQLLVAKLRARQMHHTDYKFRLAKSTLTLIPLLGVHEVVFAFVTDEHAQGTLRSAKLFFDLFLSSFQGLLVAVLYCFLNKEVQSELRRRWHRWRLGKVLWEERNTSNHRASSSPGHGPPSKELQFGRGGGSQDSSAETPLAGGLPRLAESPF

Row | cAMP Primary assay EC50, n1 | cAMP Primary assay EC50, n2 | Binder
13 | 20 nM | 20 nM | B1
14 | 19.8 nM | 19.8 nM | B2
15 | 19.8 nM | 19.8 nM | B3
16 | 20 nM | 20 nM | B4
17 | 20 nM | 20 nM | B5
18 | 19.9 nM | 19.9 nM | B6

target: T2, GLP-1R in the INS1e assay; assay: cell-based or functional assay

Row | cAMP INS1e assay EC50, Mean pM GLP-1R | cAMP INS1e assay EC50, n1 | cAMP INS1e assay EC50, n2 | Binder
19 | 4560 pM | 5.4 nM | 3.73 nM | B1
20 | 4910 pM | 6.74 nM | 3.08 nM | B2
21 | 8920 pM | 9.92 nM | 7.91 nM | B3
22 | 3660 pM | 3.84 nM | 3.48 nM | B4
23 | 3370 pM | 3.07 nM | 3.67 nM | B5
24 | 6810 pM | 6.38 nM | 7.24 nM | B6
